{
  "source": "paper PMC2929593",
  "test_in_all_cases": "DTNB continuous spectrophotometric thioesterase assay",
  "type_in_all_cases": "biochemical, Escherichia coli",
  "conditions_in_all_cases": "pH 7.5, 25 °C",
  "key": {"[1]": {"substrate": "CCC(=O)SCCNC(=O)CCNC(=O)[C@H](O)C(C)(C)COP(=O)(O)OP(=O)(O)OC[C@H]1O[C@@H](n2cnc3c(N)ncnc32)[C@H](O)[C@@H]1OP(=O)(O)O"}, "[2]": {"substrate": "CC(C)(COP(=O)(O)OP(=O)(O)OC[C@H]1O[C@@H](n2cnc3c(N)ncnc32)[C@H](O)[C@@H]1OP(=O)(O)O)[C@@H](O)C(=O)NCCC(=O)NCCSC(=O)c1ccc(O)cc1"}, "[3]": {"substrate": "CCCCCCCCCCCC(=O)SCCNC(=O)CCNC(=O)[C@H](O)C(C)(C)COP(=O)(O)OP(=O)(O)OC[C@H]1O[C@@H](n2cnc3c(N)ncnc32)[C@H](O)[C@@H]1OP(=O)(O)O"}, "[4]": {"substrate": "CCCCCCCCCCCCCCCC(=O)SCCNC(=O)CCNC(=O)[C@H](O)C(C)(C)COP(=O)(O)OP(=O)(O)OC[C@H]1O[C@@H](n2cnc3c(N)ncnc32)[C@H](O)[C@@H]1OP(=O)(O)O"}, "[5]": {"substrate": "CCCCCCCCCC(=O)SCCNC(=O)CCNC(=O)[C@H](O)C(C)(C)COP(=O)(O)OP(=O)(O)OC[C@H]1O[C@@H](n2cnc3c(N)ncnc32)[C@H](O)[C@@H]1OP(=O)(O)O"}, "[6]": {"substrate": "CC(C)(COP(=O)(O)OP(=O)(O)OC[C@H]1O[C@@H](n2cnc3c(N)ncnc32)[C@H](O)[C@@H]1OP(=O)(O)O)[C@@H](O)C(=O)NCCC(=O)NCCSC(=O)c1cccc(O)c1"}, "[7]": {"substrate": "CCCCCC(=O)SCCNC(=O)CCNC(=O)[C@H](O)C(C)(C)COP(=O)(O)OP(=O)(O)OC[C@H]1O[C@@H](n2cnc3c(N)ncnc32)[C@H](O)[C@@H]1OP(=O)(O)O"}, "[8]": {"substrate": "CC(C)(COP(=O)(O)OP(=O)(O)OC[C@H]1O[C@@H](n2cnc3c(N)ncnc32)[C@H](O)[C@@H]1OP(=O)(O)O)[C@@H](O)C(=O)NCCC(=O)NCCSC(=O)Cc1cccc(O)c1"}, "[9]": {"substrate": "CC(=O)SCCNC(=O)CCNC(=O)[C@H](O)C(C)(C)COP(=O)(O)OP(=O)(O)OC[C@H]1O[C@@H](n2cnc3c(N)ncnc32)[C@H](O)[C@@H]1OP(=O)(O)O"}},
  "data": [
    {"protein": "EntH (Escherichia coli K-12) (protein) MIWKRHLTLDELNATSDNTMVAHLGIVYTRLGDDVLEAEMPVDTRTHQPFGLLHGGASAALAETLGSMAGFMMTRDGQCVVGTELNATHHRPVSEGKVRGVCQPLHLGRQNQSWEIVVFDEQGRRCCTCRLGTAVLG", "values": [
      {"measurement": "Km", "setting": "[1]", "result": "400 ± 40", "unit": "µM"},
      {"measurement": "kcat", "setting": "[1]", "result": "0.0125 ± 0.0006", "unit": "s⁻¹"},
      {"measurement": "Km", "setting": "[2]", "result": "21 ± 2", "unit": "µM"},
      {"measurement": "kcat", "setting": "[2]", "result": "1.55 ± 0.05", "unit": "s⁻¹"},
      {"measurement": "Km", "setting": "[3]", "result": "45 ± 2", "unit": "µM"},
      {"measurement": "kcat", "setting": "[3]", "result": "0.0281 ± 0.0003", "unit": "s⁻¹"},
      {"measurement": "Km", "setting": "[4]", "result": "55 ± 9", "unit": "µM"},
      {"measurement": "kcat", "setting": "[4]", "result": "0.085 ± 0.004", "unit": "s⁻¹"},
      {"measurement": "Km", "setting": "[5]", "result": "49 ± 3", "unit": "µM"},
      {"measurement": "kcat", "setting": "[5]", "result": "0.0267 ± 0.0004", "unit": "s⁻¹"},
      {"measurement": "Km", "setting": "[6]", "result": "35 ± 1", "unit": "µM"},
      {"measurement": "kcat", "setting": "[6]", "result": "1.21 ± 0.01", "unit": "s⁻¹"},
      {"measurement": "Km", "setting": "[7]", "result": "350 ± 90", "unit": "µM"},
      {"measurement": "kcat", "setting": "[7]", "result": "0.058 ± 0.001", "unit": "s⁻¹"},
      {"measurement": "Km", "setting": "[8]", "result": "37 ± 1", "unit": "µM"},
      {"measurement": "kcat", "setting": "[8]", "result": "2.1 ± 0.5", "unit": "s⁻¹"},
      {"measurement": "Km", "setting": "[9]", "result": "800 ± 90", "unit": "µM"},
      {"measurement": "kcat", "setting": "[9]", "result": "0.0044 ± 0.0002", "unit": "s⁻¹"}
    ]}
  ]
}
